167 variants from the RNAGym collection of RNA variant scans (doi:10.7554/elife.80360) can be followed below.

The labels stand for the following.
B1: CPEB3 Ribozyme (parent)
chain: GGGGGCCACAGCAGAAGCGUUCACGUCGCGGCCCCUGUCAGAUUCUGGUGAAUCUGCGAAUUCUGCUGU

Variants of B1 are the subject of the data set. Description: self-cleavage, relative activity (ratio to wild type); higher = more cleavage; co-transcriptional.
Regarding A15G G30U, the self-cleavage is 0.342.

In the case of A15G G30A, the self-cleavage came out at 0.917.

Take A15C U38G: the self-cleavage amounted to 0.292. Regarding A15C U38A, the self-cleavage is 0.595. The value for A15C U38C was 0.571; that for A15G A60G was 0.821. As for A15G A60C, the figure is 0.43.

As to A15G C39A, the self-cleavage stood at 0.833. As to G14U C54U, the self-cleavage is 0.734. As for G14U C54G, the self-cleavage worked out at 0.363. Turning to G14U C54A, the self-cleavage is 0.266. Regarding G14U U44C, the self-cleavage is 0.325. Take A15C A59C: the self-cleavage was 0.288.

A15G C22U: the self-cleavage was 0.287. For A15G G25U, the self-cleavage was 0.148. On to A15G G25C, for which the self-cleavage was 0.133. Take A15G G25A: the self-cleavage was 0.127.

Take A15G A23G: the self-cleavage is 0.959. The value for A15G A23U was 1.04. On to A15G C35U, for which the self-cleavage was 0.96. Turning to A15G C35G, the self-cleavage came to 0.457. For the variant A15G C35A, the self-cleavage was found to be 0.273. As for A15C C57U, the self-cleavage came to 0.423. On to A15C A52G, for which the self-cleavage turned out to be 0.98. Regarding A15G U43C, the self-cleavage is 1.01.

Take A15C C18A: the self-cleavage stood at 0.174. As for A15C C18G, the figure is 0.0508; as for A15C C18U, 0.296; as for A15G U55C, 0.869. Turning to A15G U55G, the self-cleavage was determined as 0.85. As to A15G U55A, the self-cleavage came out at 0.892. Regarding A15C U49C, the self-cleavage amounted to 0.842.

With A15C U49G, the self-cleavage is 0.858.

In the case of G14U G50U, the self-cleavage was 0.815. With G14U G50C, the self-cleavage turned out to be 0.616.

Turning to G14U G50A, the self-cleavage was 0.812. On to G14U C63U, for which the self-cleavage was found to be 0.893.

As to G14U C63A, the self-cleavage was determined as 0.994. On to G14U C63G, for which the self-cleavage was determined as 0.994. Take A15U A52U: the self-cleavage came to 0.804. The value for A15U A52C was 0.889. With A15C G30A, the self-cleavage was found to be 0.392. On to A15C G30U, for which the self-cleavage came out at 0.0766. Turning to G14U U67C, the self-cleavage worked out at 0.55. Take G14U U67G: the self-cleavage was 0.77. A15G U26G: the self-cleavage is 0.953. The value for A15G U26C was 1.03; that for A15G U26A was 0.905; that for A15G U69G was 1.05. Consider A15G U69C, for which the self-cleavage was 1.05. As to A15G U69A, the self-cleavage was 1.04. Take A15C G25A: the self-cleavage was determined as 0.127. For the variant A15G C27U, the self-cleavage stood at 0.204. Turning to A15G C27A, the self-cleavage is 0.645. For the variant A15G C27G, the self-cleavage was 0.316. A15C U44G: the self-cleavage was 0.739.

As to A15C U44C, the self-cleavage was determined as 0.659. As for A15C U44A, the self-cleavage was determined as 0.662. In the case of G14U U20A, the self-cleavage was found to be 0.121.

Regarding G14U U20G, the self-cleavage is 0.137.

Regarding A15C A51C, the self-cleavage stood at 0.752. The value for A15C U69C was 0.978; that for A15C G41C was 0.215; that for A15C G41A was 0.289.

A15G A42C: the self-cleavage stood at 0.789. In the case of A15G A42G, the self-cleavage came out at 0.928. Regarding G14U U49C, the self-cleavage worked out at 0.678.

In the case of G14U U49G, the self-cleavage was determined as 0.867. In the case of G14U A52U, the self-cleavage turned out to be 0.767. For G14U A52C, the self-cleavage was 0.715. A15G A40G: the self-cleavage came out at 0.996. In the case of G14U U21C, the self-cleavage amounted to 0.379.

For G14U U21A, the self-cleavage is 0.733. Take A15G G19U: the self-cleavage stood at 0.439.

For the variant A15G G19C, the self-cleavage was 0.15. Regarding A15G G19A, the self-cleavage was found to be 0.216.

Turning to A15G G48U, the self-cleavage is 0.989. In the case of A15G G48C, the self-cleavage was 1. In the case of A15G G48A, the self-cleavage was found to be 0.966. Take A15C U55C: the self-cleavage was 0.545. As for A15C U55A, the figure is 0.435; as for A15C G68U, 0.969.

Regarding A15C G68C, the self-cleavage amounted to 0.917. For the variant A15G A59U, the self-cleavage came to 0.785.

For A15G A59G, the self-cleavage turned out to be 0.994.

With A15U A23U, the self-cleavage is 0.95. Take A15U A23G: the self-cleavage was found to be 0.658. As for A15U A23C, the figure is 0.723; as for G14U U26G, 0.559; as for G14U U26A, 0.555.

Regarding G14U U36A, the self-cleavage worked out at 0.18. As to A15C C63G, the self-cleavage was found to be 0.921. In the case of A15C C66A, the self-cleavage came out at 0.357. As for A15C C66U, the self-cleavage was found to be 0.725. For G14U G41C, the self-cleavage was determined as 0.245. On to G14U G30A, for which the self-cleavage amounted to 0.288. Consider G14U G30U, for which the self-cleavage turned out to be 0.155. Turning to G14U G30C, the self-cleavage came to 0.187. In the case of G14U C24G, the self-cleavage is 0.109. For the variant G14U C24U, the self-cleavage was 0.137.

As for G14U U55G, the self-cleavage was 0.268.

For the variant G14U U55C, the self-cleavage came to 0.345. On to A15C U26C, for which the self-cleavage worked out at 0.73. On to A15C U26A, for which the self-cleavage was 0.48. For A15C U36C, the self-cleavage stood at 0.487. As for A15C U36G, the figure is 0.214; as for A15C U36A, 0.288; as for G14U G28U, 0.164. Take A15G U46C: the self-cleavage was determined as 0.974.

As to A15G G68C, the self-cleavage was determined as 1.05. The value for A15G G68A was 1.02.

Regarding A15C G37A, the self-cleavage stood at 0.196. Turning to A15C G37U, the self-cleavage came out at 0.168.

As to A15C G37C, the self-cleavage was 0.105.

Consider A15C C33A, for which the self-cleavage was 0.32.

Turning to A15C C33G, the self-cleavage was 0.259. For the variant A15C U64A, the self-cleavage came to 0.952. A15C U64G: the self-cleavage came out at 0.91. For the variant A15C U64C, the self-cleavage came to 0.958. For G14U U64A, the self-cleavage was 0.458.

In the case of G14U U64G, the self-cleavage amounted to 0.481. With G14U U64C, the self-cleavage is 0.401. For G14U G58A, the self-cleavage was 0.679. In the case of G14U G58C, the self-cleavage is 0.72. Consider G14U C45G, for which the self-cleavage was determined as 0.62. As for G14U C45A, the self-cleavage is 0.665. On to G14U C45U, for which the self-cleavage was found to be 0.721. Take G14U C57A: the self-cleavage stood at 0.216.

Take G14U C57G: the self-cleavage is 0.246. The value for G14U C57U was 0.351. Turning to A15G A52C, the self-cleavage came to 0.949. Take A15C G50C: the self-cleavage came out at 0.808. For A15C G50A, the self-cleavage is 0.933. Consider A15C C29G, for which the self-cleavage is 0.163. As for A15C C29U, the figure is 0.122; as for A15G U49A, 0.986. Regarding A15G U49C, the self-cleavage was 0.968.

For the variant A15G U49G, the self-cleavage is 0.95.

As for A15C G31A, the self-cleavage came out at 0.456.

For the variant A15C G31C, the self-cleavage was determined as 0.27.

For the variant A15C G48C, the self-cleavage was 0.918. As to A15C G48A, the self-cleavage came to 0.935. Consider A15C G48U, for which the self-cleavage came out at 0.883. The value for G14U C33U was 0.79; that for G14U C33A was 0.522; that for A15U A51G was 0.916. The value for A15U A51C was 0.79; that for A15G U62C was 0.956; that for A15G U62A was 0.906.

Regarding G14U G56C, the self-cleavage was 0.292. In the case of G14U G56U, the self-cleavage came to 0.309.

With G14U U53G, the self-cleavage was found to be 0.439. In the case of G14U U53A, the self-cleavage was determined as 0.356. On to G14U U53C, for which the self-cleavage is 0.33. Take A15G: the self-cleavage worked out at 1. For the variant A15U, the self-cleavage was found to be 0.928. For the variant A15C, the self-cleavage came to 0.923.

G14U G65A: the self-cleavage was 0.32. Regarding G14U G65U, the self-cleavage is 0.334. For G14U G65C, the self-cleavage was determined as 0.384. Turning to A15C C34A, the self-cleavage was 0.394. The value for G14U C29G was 0.167. In the case of G14U C29A, the self-cleavage amounted to 0.19. The value for G14U C29U was 0.111; that for A15G G47A was 0.971; that for G14U G37C was 0.129. Take G14U G37U: the self-cleavage worked out at 0.129.
